According to publication doi:10.1101/197673:

Molecular target: TM-JM peptide of EGFR labelled at the N-terminus with Cy3 or Cy5
Test: FRET or BRET

percent of peptide dimers with a high FRET efficiency state in the trajectories: 95%
Substance: TM-JM peptide of EGFR labelled at the N-terminus with Cy3 or Cy5
